T1: full-length human TIGIT on cells (human, UniProt Q495A1 22-244)
T1 construct: whole, on cells; The same protein is used for CHO-hTIGIT, PBMC and NK92-hTIGIT; the cells are named under assay; also called CHO-hTIGIT; hTIGIT
T1 sequence (looked up): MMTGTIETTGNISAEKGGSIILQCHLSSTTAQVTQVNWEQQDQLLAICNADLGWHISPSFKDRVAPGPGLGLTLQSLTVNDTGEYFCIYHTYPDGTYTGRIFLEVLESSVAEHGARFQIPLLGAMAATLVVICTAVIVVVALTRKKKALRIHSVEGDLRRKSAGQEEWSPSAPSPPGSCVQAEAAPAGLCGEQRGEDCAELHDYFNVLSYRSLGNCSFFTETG

T2: human Tigit extracellular domain recombinant protein hTigit-his (Acrobiosystem, Cat.TIT-H2H3) (human, UniProt Q495A1 22-141)
T2 construct: extracellular domain; Bought; not shown: his tag
T2 sequence (looked up): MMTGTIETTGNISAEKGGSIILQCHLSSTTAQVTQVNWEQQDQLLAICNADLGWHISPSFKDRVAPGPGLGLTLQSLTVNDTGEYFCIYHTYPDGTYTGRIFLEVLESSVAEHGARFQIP

T3: hTIGIT-hFc (human, UniProt Q495A1 22-141)
T3 construct: also called antigen protein hTIGIT-hFc; human TIGIT recombinant protein carrying a human Fc tag; not shown: human Fc tag
T3 sequence (looked up): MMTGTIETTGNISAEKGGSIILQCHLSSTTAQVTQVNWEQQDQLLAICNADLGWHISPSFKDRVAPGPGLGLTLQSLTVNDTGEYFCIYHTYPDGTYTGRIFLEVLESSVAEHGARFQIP

T4: human Tigit extracellular domain recombinant protein hTigit-his (self-produced) (human, UniProt Q495A1 22-141)
T4 construct: extracellular domain; Self-produced; used in the KD analysis of Embodiment 4; also called human Tigit recombinant protein; not shown: his tag
T4 sequence (looked up): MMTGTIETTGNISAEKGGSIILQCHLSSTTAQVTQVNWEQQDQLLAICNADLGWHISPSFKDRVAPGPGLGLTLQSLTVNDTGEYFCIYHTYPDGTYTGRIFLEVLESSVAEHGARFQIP


Legend:
[1] = target: T1, full-length human TIGIT on cells; assay: FACS blocking: antibody on CHO-hTIGIT cells, then hPVR-hFc, PE anti-human IgG Fc; blocked ligand hPVR-hFc
Protocol: The CHO-engineered cells CHO-hTIGIT cells recombinantly expressing full-length human TIGIT were counted, and centrifugated at 300 g for 5 min, resuspended with an FCM buffer, and cell density was adjusted to 4E+06 cell/mL for later use. […] According to an experimental design, in each well, 50 μL of the antibody and 50 μL of the cell (the volume of each cell added into a 96-well V-shaped plate being 2E+05 cell/well) were respectively added in the 96-well V-shaped plate; and incubation was performed in dark on ice for 30 min. The ligand protein was added to the 96-well V-shaped plate (in 50 μL/well); and incubation was performed in dark on ice for 30 min. Centrifugation (300 g/5 min) was performed; supernatant was discarded; 200 μL of the FCM buffer was added for washing once; centrifugation (300 g/5 min) was performed; and the supernatant was discarded. Secondary antibodies (PE anti-human IgG Fc, 1:500 dilution) were added to the 96-well V-shaped plate (in 100 μL/well); and incubation was performed in dark on ice for 30 min. Centrifugation (300 g/5 min) was performed; supernatant was discarded; 200 μL of the FCM buffer was added for washing once; centrifugation (300 g/5 min) was performed; and the supernatant was discarded. 100 μL of the 1×PBS was added for resuspending, and on-machine detection was performed.

[2] = target: T2, human Tigit extracellular domain …; assay: BLI epitope binning (ForteBIO QKe), hTigit-his on anti-Penta-HIS sensor; competitor R0300
Protocol: (§1) Epitope competition analysis was performed on an anti-human TIGIT antibody with an MD ForteBIO QKe platform. An experimental method included: a human Tigit extracellular domain recombinant protein hTigit-his (Acrobiosystem, Cat.TIT-H2H3, lot-1336-76GF1-F9) carrying a his tag was diluted with an equilibration buffer (1×PBS+0.02% Tween 20), until the final concentration was 1.5 μg/ml. The anti-human Tigit antibody was diluted with the equilibration buffer (1×PBS+0.02% Tween 20), the final concentration being 5 μg/ml. After an anti-Penta-HIS biosensor (ForteBIO, Cat. 18-5122) was fully hydrated, first the hTigit-his recombinant protein was solidified for 180 seconds, then equilibrated for 30 seconds, and bound to the first anti-human Tigit antibody for 180 seconds, then equilibrated for 30 seconds, and then bound to the second anti-human Tigit antibody, binding time being 300 seconds. The whole reaction was performed at 25° C. and 1000 rpm; and finally, Octet analysis software was used to perform epitope binning analysis.

hTIGIT-hFc = target: T3, hTIGIT-hFc; assay: FACS blocking: antibody preincubated with hTIGIT-hFc, then CHO-hPVR cells, PE anti-human IgG Fc; blocked partner PVR on cells
Protocol: The CHO-engineered cells CHO-hPVR cells recombinantly expressing full-length human PVR were counted centrifugated at 300 g for 5 min, resuspended with an FCM buffer, the cells were added to the 96-well V-shaped plate; the volume of each cell added into a 96-well V-shaped plate was 2E+05 cell/well (being added in 50 μL/well); and incubation was performed in dark on ice for 30 min. Centrifugation (300 g/5 min) was performed; supernatant was discarded; 200 μL of the FCM buffer was added for washing once; centrifugation (300 g/5 min) was performed; and the supernatant was discarded. Secondary antibodies (PE anti-human IgG Fc, 1:500 dilution) were added to the 96-well V-shaped plate (in 100 μL/well); and incubation was performed in dark on ice for 30 min. Centrifugation (300 g/5 min) was performed; supernatant was discarded; 200 μL of the FCM buffer was added for washing once; centrifugation (300 g/5 min) was performed; and the supernatant was discarded. 100 μL of the 1×PBS was added for resuspending, and on-machine detection was performed.

[3] = target: T4, human Tigit extracellular domain …; assay: BLI (ForteBIO QKe), hTigit-his on anti-Penta-HIS sensor, antibody in solution
Protocol: Binding kinetic constant analysis was performed on an anti-hTigit antibody and hTigit with an MD ForteBIO QKe platform.

[4] = target: T2, human Tigit extracellular domain …; assay: BLI epitope binning (ForteBIO QKe), hTigit-his on anti-Penta-HIS sensor; competitor R0223
Protocol: as §1

Row | Binder | IC50 (read off the curve) [1] | epitope binning signal (name and unit not given) [2] | IC50 (read off the curve) (hTIGIT-hFc) | Kd [3] | epitope binning signal (name and unit not given) [4]
1 | 3Tigit-16 mouse monoclonal antibody (antibody, V domains shown, Mouse monoclonal antibody from hybridoma) VH: EVQLQQSGPELVKPGASVKMSCKASGFTFTDYFMDWVKQSRGASFEWIGRLNPNNGRTSYNQKFKGKATLTVDKSSSTAYMELNSLTSEDSAVYYCARGDLGRWYFDVWGAGTTVTVSS VL: QIVLTQSPAIMSASPGEKVTMTCSASSSVSYMHWYQQKSGTSPKRWIYDTSKLASGVPTRFSGSGSGTSYSLTISSMEAEDAASYFCQQWSSNSLTFGAGTKLELKR | ~0.3 nM | 0.0157 | ~1 nM | 0.202 nM | 0.008
2 | 3Tigit-29 mouse monoclonal antibody (antibody, V domains shown, Mouse monoclonal antibody from hybridoma) VH: EVQLQQSGPELVKPGASVKISCKASGYTFTDYNMHWVKQSLGKSLEWIGYVNSFNGNTGYSQKFKSKVTLTVDRSSRTAYMDLRSLTSEDSAVFYCARSSRGGFAYWGQGTLVTVSA VL: QIVLTQSPAIMSASPGEKVTMTCSASSSVSYMHWYQQKSGTSPKRWIYDTSKLASGVPARFSGSVSGTSYSLTISSMEAEDAATYYCQQWSSNSLTFGAGTKLELKR | ~0.3 nM | 0.0254 | ~1 nM | 0.155 nM | -0.0018
3 | 14Tigit-1-1 mouse monoclonal antibody (antibody, V domains shown, Mouse monoclonal antibody from hybridoma) VH: DVQLQESGPGLVKPSQSLSLTCTVTGYSITSDYAWNWIRQFPGNKLEWMGYISYSGSTRSNPSLKSRISITRDTSKNQFFLQLNSMTAEDTATYYCGGWEVRNYYAMDYWGQGTSVTVSS VL: DIVMTQSHKFMSTSVGDRVSITCKASQHVSTAVAWYQQKPGQSPKLLIYSASYRYTGVPDRFTGSGSGTDFTFTISSVQAEDLAVYYCQQHYNTPWTFGGGTKLEIKR |  |  |  | 0.172 nM | 

Now those with a lower Kd [3], led by results:

Row | IC50 (read off the curve) [1] | epitope binning signal (name and unit not given) [2] | IC50 (read off the curve) (hTIGIT-hFc) | Kd [3] | epitope binning signal (name and unit not given) [4] | Binder
4 |  | 0.0196 |  | 0.119 nM | 0.01 | 3Tigit-12 mouse monoclonal antibody (antibody, V domains shown, Mouse monoclonal antibody from hybridoma) VH: QVQLQQSGAELVRPGTSVKMSCKAAGYTFTNYWIGWVKQRPGHGLEWIGDIYPGGGYTNYDEKFKGKATLTADTSSRTAYMQLSSLTSEDSAIYHCVNGGYGSTYGYFDVWGAGTTVTVSS VL: DIVMSQSPSSLPVSVGEKVTMSCKSSQSLLFSSDQKNYLAWYQQKPGQSPKLLIYWASTRESGVPDRLTGSGSGTDFTLTISSVKAEDLAVYYCQQYHKYPFTFGGGTKLEIKR
5 | ~0.3 nM | 0.668 | ~1 nM | 0.0605 nM | 0.0443 | Tigit-5 mouse monoclonal antibody (antibody, V domains shown, Mouse monoclonal antibody from hybridoma) VH: QVQLQQPGAELVRPGASVKLSCKASGYSFTSYWMNWVKQRPGQGLEWIGMIRPSDSETRLNQMFKDKATLTVDKSSSTAYMQLSSPTSDDSAVYYCAGIHDYGHGAYWGQGTLVTVSA VL: DIQMIQSPASLSVSVGETVTITCRASENIYSNLAWYQQKQGKSPQLLVYAASHLPDGVPSRFSGSGSGTQYSLKINSLQSEDFGSYYCQHFWGTPRTFGGGTKLEIKR

Reference: patent publication US20240002500A1 (GUANGDONG FAPON BIOPHARMA, published 2024)
